A short description of this data set: yeast display, Sf9 membrane polyspecificity reagent, FACS + sequencing; frameworks hold sequencing errors. The gist of the method: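 Galactose induction of a Saccharomyces cerevisiae BJ5465 synthetic nanobody display library ran 36–48 hours. The cells were then stained for 1 hour at 4 °C with 10% biotinylated, detergent-solubilized Sf9 membrane reagent, pulled down on streptavidin microbeads and FACS-sorted into low and high (top ~1%) gates on expression and reagent-binding fluorescence. Labels for polyreactivity follow the gate of origin.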
With “QVQLVESGGGLVQAGGSLRLSCAASGRIFDIYTMGWYRQAPGKERELVASITKRGGSTYYADSVKGRFTISRDNAKNTVYLQMNSLKPEDTAVYYCNVAGKQKPYYVTTRLDYWGQGTQVTVSS”, the “polyreactivity (PSR sort gate)” value was “high polyreactivity”.
“QVQLVESGGGLVQAGGSLRLSCAASGRIFDKNAMGWYRQAPGKERELVAAISGGGRTYYADSVKGRFTISRDNAKNTVYLLMNSLKPEDTAVYYCNVPYYYTRGSYGYWGQGTQVTVSS”: the “polyreactivity (PSR sort gate)” value was “low polyreactivity”.
In the case of “QVQLVESGGGLVQAGGSLRLSCAASGRIFDKYAMGWYRQAPGKERYLVAAIDWSGGSTYYADSVKGRFTISRDNAKNTVYLQMNRLKPEDNAVYYCAAYWYYEDGQSEARLYGYDYWGQGTQVTVSS” it was “low polyreactivity”.
The entry for “QVQLVESGGGLVQAGGSLRLSCAASGRIFDLNAMGWYSQAPGKERELVAAITTNDGDTYYADSVKGRFTISRDTAKNTVYLQMNSLKPEDTAVYYCAAVSGSTSEYEYWGQGTEVTVSS” is “low polyreactivity”; for “QVQLVESGGGLVQAGGSLRLSCAASGRIFDLNTMGWYRQAPGKERELVAAISSGGSTYYADSVNGRFTISRDNAKNTVYIQMNSLKPEDTAVYYCADAKIRGYLIRMYWGQRTQVTVSS” it is “low polyreactivity”.
The entry for “QVQLVESGGGLVQAGGSLRLSCAASGRIFDNNAMGWYIQAPGKERELVAAIDWPGGSTDYADSVKGRFTISRDNAKNTVYLQMNSLIPEDTAVYYCVAGNVPYWHGNSYDYWGQGTQVTVSS” is “low polyreactivity”.
Regarding “QVQLVESGGGLVQAGGSLRLSCAASGRIFDNYAMGWYRQAPGKDREWVAAISSRGRSTYYADSVKGRFTISRDNAKNTVYLQMNSLKPEDTAVYYCAKDLGYRGRYNYWGQGTQVTVSS”, the “polyreactivity (PSR sort gate)” value is reported as “low polyreactivity”.
Take “QVQLVESGGGLVQAGGSLRLSCAASGRIFDQNAMGWYRQAPGKERELVAAITWSGGSTNYADSVKGRFTISRDNAKNTVYLQMNSLKPEDTAVYYCATDGKPSFYSFDYWGQGTQVTVSS”: the “polyreactivity (PSR sort gate)” value was “low polyreactivity”.
In the case of “QVQLVESGGGLVQAGGSLRLSCAASGRIFDRNAMGWYRQAPGKERELVARIDPGDDTNYADSVKGRFTISRDNAKNTVYLQMNSLKPEDTAVYYCAADGVVVVAADMYYWGQGTQVTVSS” it was “low polyreactivity”.
As to “QVQLVESGGGLVQAGGSLRLSCAASGRIFDRYAMGWYRQAPGKERELVAAISDRGGSTYYADSVKGRFTISRDNAKNTVYLQMNSLKPEDTAVFYCAKGPSGVRTYREYDSWGQGTQVTVSS”, the “polyreactivity (PSR sort gate)” value is on record as “low polyreactivity”.
Regarding “QVQLVESGGGLVQAGGSLRLSCAASGRIFDSNAMGWYRQAPGKERELVAAITYSGGGTFYADSVKGRFTISRDNAKNTVYLQMNRLKPEDTAVYYCNAGYFTEYNSWGQGTQVTVSS”, the “polyreactivity (PSR sort gate)” value was “high polyreactivity”.
In the case of “QVQLVESGGGLVQAGGSLRLSCAASGRIFDTNVMGWYRQAPGKERELVAAISSGGSTYYADSVKGRFTISRDNAKNTVYLQMNSLKPEDTAVYFCAAESRTSRARRYYWGQGTQVTVSS” it was “high polyreactivity”.
The entry for “QVQLVESGGGLVQAGGSLRLSCAASGRIFDVNAMGWYRQAPGKERELVAAITYSDGSTYYADSVTGRFTISRDNAKNTVYLQMNSLKPEDTAVDYCAATQEPVTPQPYGYWGQGTQVTVSS” is “low polyreactivity”; for “QVQLVESGGGLVQAGGSLRLSCAASGRIFDVYAMGWYRQAPGKERELVAGITYSGGSTYYADSVKGRFTISRDNAKNTVYVQMNSLKPEDTAVYYCAALNGDPYVQLLEDYWGQGTQVTVSS” it is “low polyreactivity”; for “QVQLVESGGGLVQAGGSLRLSCAASGRIFDYNGMGWYRQAPGKERELVAAIRLSDGSTYYADSVKGRFTISRDNAKNTVYLQMNSQKPEDTAVYYCADVGKNRSWYDYWGQGSQVTVSS” it is “high polyreactivity”.
With “QVQLVESGGGLVQAGGSLRLSCAASGRIFDYNTMGWYRQAPGKEREFVAAITSSGGRTYYADSVKGRFTISRDNAKNTVYLQMNSLKPEDTAVYYCAARLNIYYRRMGYWGQGTQVTVSS”, the “polyreactivity (PSR sort gate)” value was “high polyreactivity”.
On to “QVQLVESGGGLVQAGGSLRLSCAASGRIFDYYAMGWYRQAPGKERELVAAISSSVGNTYYADSVKGRFTISRDNAKNTVYLQMNSLKPEDTAVYYFADYSYVRSSYEVEDDYWGQGTQVTVSS”, for which the “polyreactivity (PSR sort gate)” value was “low polyreactivity”.
In the case of “QVQLVESGGGLVQAGGSLRLSCAASGRIFDYYAMGWYRQAPGKERELVATITSGSRTYYADSVKGRFTISRDNAKNTVYLQMNSLKPEDTAVYYCNTVSFKRLGWRYDYWGQGTQVTVSS” it was “high polyreactivity”.
On to “QVQLVESGGGLVQAGGSLRLSCAASGRIFDYYTMGWYRQAPGKERELVAGINSGDSTYYADYVKGRFTISRDNAKNTVYLQMNSLKPEDTAVYYCAASADWWYEYWGQGTQVTVSS”, for which the “polyreactivity (PSR sort gate)” value was “high polyreactivity”.
Take “QVQLVESGGGLVQAGGSLRLSCAASGRIFEIYAMGWYRQAPGKERELVAAITDSGGSTYYAYSVKGRFTISRDNAKNTVYLQINSLKPEDTAVYYCAAVGYSYETWLFYYWGQGTQVTVSS”: the “polyreactivity (PSR sort gate)” value is given as “low polyreactivity”.
Turning to “QVQLVESGGGLVQAGGSLRLSCAASGRIFEKYAMRWYREAPGKERELVAAMTRSGGRTYYADSVKGRFTISRDNAKNTVYLQMNSQKPEDTAVYYCAARYVSRFDWGQGTQVTVSS”, the “polyreactivity (PSR sort gate)” value was “high polyreactivity”.
In the case of “QVQLVESGGGLVQAGGSLRLSCAASGRIFEPYAMGWYRQAPGKERELVAAISWSGTSTRYADSVKGRFTISRDNAKNTVYLQMNSLKPEDTAVYYCAARGNNPARGGYWGQGTQVTVSS” it was “high polyreactivity”; in that of “QVQLVESGGGLVQAGGSLRLSCAASGRIFERNAKGWYRQAPGKERELVAALTYNGGRTYYADSVKGRFTITRDNAKNTVYLQLNSLKPEDTAVYNCNAQSRVTRSSYRGSPRYDYWGQGTQVTVSS”, “high polyreactivity”; in that of “QVQLVESGGGLVQAGGSLRLSCAASGRIFERYAMGRYRQAPGKERELVAAISVSGSGTYYADSVKGRFTISRDNAKNTVYLQINSLKPEDTAVYYCAADASLLGLYYYLFYLEVNYWGQGTQVTVSS”, “low polyreactivity”.
With “QVQLVESGGGLVQAGGSLRLSCAASGRIFERYAMGWYRQAPGKERELVAGISISGGGTYYADSVKGRFTISRDIAKNTVYFQMNSLKPEDTAVYYCAATFPREEYGYWGQGTQVTVSS”, the “polyreactivity (PSR sort gate)” value is on record as “low polyreactivity”.
In the case of “QVQLVESGGGLVQAGGSLRLSCAASGRIFERYAMGWYRQAPGKERELVAGISISGGGTYYADSVKGRFTISRDNAKNTFYLQMNSLNPEDTAVYYCSATFPREEYGYWGQGTQVTVSS” it was “low polyreactivity”; in that of “QVQLVESGGGLVQAGGSLRLSCAASGRIFEYNAMGWYRQAPGKERELVAAITSDGSTNYADSVKGRFTISRDNEKNTVYLQMNSLKPEDTAVYYCNTRYSLYTKYAYYDEHDYWGQGTQVTVSS”, “low polyreactivity”; in that of “QVQLVESGGGLVQAGGSLRLSCAASGRIFEYYAMGWYRQAPGKERELVAAIRSGGRTYYADSVKGRFTISRDNAKNTVYLQMNSLKPEDTAVYYCNKLYRGGYGYWGQGTQVTVSS”, “high polyreactivity”.
Take “QVQLVESGGGLVQAGGSLRLSCAASGRIFFIYAMGWYRQAPGKERELVAAISYDSGSTYYADSVKGRFTISRDNAKNTVSLQMNSLKPEDTAVYYCAAEWGLVIYSTYGYDYWGQGTQVTVSS”: the “polyreactivity (PSR sort gate)” value is “low polyreactivity”.
For the sequence “QVQLVESGGGLVQAGGSLRLSCAASGRIFFLYAMGWSRQAPGKERELVAAITKSGGSTYADSVKGRYTISRDNAKNPVYLQMNSLKPEDTAVYYCATENTDSRDSGYIVKYGSDYWGQRTQVTVSS”, the “polyreactivity (PSR sort gate)” value is “low polyreactivity”.
In the case of “QVQLVESGGGLVQAGGSLRLSCAASGRIFFNSAMGWYRQAPGKERELVAAIRGGGSTYADSVKGRFTISRDNAKNTVYLQMNSLKPEDTAVYYCAARYSGSPYHTRRYYYWGQGTQVTVSS” it was “high polyreactivity”; in that of “QVQLVESGGGLVQAGGSLRLSCAASGRIFFNYAMGWYRQAPGKERELVAAIRGGGSTYADSVKGRFTISRDNAKNTVYLQMNSLKPEDTAVYYCAARYSGSPYHTRRYYYWGQGTQVTVSS”, “high polyreactivity”; in that of “QVQLVESGGGLVQAGGSLRLSCAASGRIFFRYAMGWYRPAPGKEREFVAAISGSAGSTYYADSVKGRFKISRDNAKNTVYLQMNSLKPEDTAVYYCAARKAKVSNGLKYDYWGQGTQVTVSS”, “high polyreactivity”.
In the case of “QVQLVESGGGLVQAGGSLRLSCAASGRIFFSYAMGWYRQAPGKERELVAAITSGGSTNYADSVKGRFTISRDNAKNTVYLQMNSLKPEDTAVYYCNKARSSGYNFGYWGQGTQVTVSS”, the “polyreactivity (PSR sort gate)” value is “low polyreactivity”.
In the case of “QVQLVESGGGLVQAGGSLRLSCAASGRIFFTNAMGWYSQAPGKEREFVAAISKSGARTYYADSVKGRFTISRDNAKNTVYLQMISLKPEDTAVYYCAADVSVYGYYYWGQGTQVTVSS” it was “high polyreactivity”.
For “QVQLVESGGGLVQAGGSLRLSCAASGRIFFTYAMGWYRQAPGKERELVAAIDRSGTSTYYADSVKGRFTISRDNAKNTVYLQMNRLKPEDTAVYNCAARPNPNYDEMDYWGQGTQVNVSS”, the “polyreactivity (PSR sort gate)” value is given as “low polyreactivity”.
Regarding “QVQLVESGGGLVQAGGSLRLSCAASGRIFFTYTMGWYRQAPGKERELVAAITGGGARTYYADSVKGRFTISRDNSKNTVYLQMNSLKPEDTAVYYCAKGWQRIGFYYWGQGTQVTVSS”, the “polyreactivity (PSR sort gate)” value is given as “high polyreactivity”.
In the case of “QVQLVESGGGLVQAGGSLRLSCAASGRIFFTYTMGWYRQAPVNERELVAAITGGGARTYYADSVKVRFTISRDYAKNTVYLQMNSLKPEDSAVYYCAKGWQRIGFYYWGQGTQVTVSS” it was “high polyreactivity”.
The entry for “QVQLVESGGGLVQAGGSLRLSCAASGRIFFYNTMGWYRQAPGKERELVATISWSGASTYYADSVKGRFTISRDNAKNTVYLQMNSLKPEDTAVDYCAAVTRYTGFDYWGQGTQVTVSS” is “high polyreactivity”.
As to “QVQLVESGGGLVQAGGSLRLSCAASGRIFFYYAMGWYRQAPGKEREFVAAISTSSGSTYYADSVKGRFTISRDNAKNTVYLQMNSLKPEDTAVYYCAADEVYSRGIWPVEDDYWGQGTQVTVSS”, the “polyreactivity (PSR sort gate)” value is recorded as “low polyreactivity”.
In the case of “QVQLVESGGGLVQAGGSLRLSCAASGRIFFYYAMGWYRQAPGKERELVATITASGDSTYYADSVKGRFTISRDNAKDTVYLQMNSLKPEDTAVYYCAADDGDYYEVDYWGQGTQVTVSS” it was “low polyreactivity”.

Values taken from the nanobody polyreactivity screen of Harvey et al. (2022).
